Results reported in the supplement of paper PMC9428881.
± gives the standard error.

experiment: background-corrected fluorescence of 3'-dye-labeled ssDNA relative to brightest sequence (3'-GCGCG) (fraction); higher = brighter dye fluorescence (less quenching); conditions: dye: Cy5 (3' terminal)
Experimental: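 Single-stranded DNA is synthesized in situ on glass microarrays by 5'->3' photolithographic synthesis, with a Cy3 or Cy5 phosphoramidite coupled at the 3' end next to all 1024 permuted pentamers P1-P5. The construct is 5'-T5-(ACGT minus P5..P1 trinucleotides)-T15-P5P4P3P2P1-dye-3'; the dye is a 3' terminal modification, not part of the sequence. Arrays were scanned at 532 nm (Cy3) or 635 nm (Cy5), background from unlabeled oligos was subtracted, and values are averaged over 10 replicate features per array and at least 3 independent syntheses.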

| Sequence | background-corrected fluorescence |
| --- | --- |
| TTTTTGCATGAGCATCAGCATTTTTTTTTTTTTTTTCTGT [TGTCT] | 0.433 ± 0.02 |
| TTTTTGCATGAGCATCATCATTTTTTTTTTTTTTTTCTGG [GGTCT] | 0.43 ± 0.035 |
| TTTTTGCATGAGCATCATGATTTTTTTTTTTTTTTTCTGC [CGTCT] | 0.368 ± 0.024 |
| TTTTTGCATGAGCATCATGCTTTTTTTTTTTTTTTTCTGA [AGTCT] | 0.56 ± 0.037 |
| TTTTTGCATGAGCATGAGCATTTTTTTTTTTTTTTTCTCT | 0.332 ± 0.024 |
| TTTTTGCATGAGCATGATCATTTTTTTTTTTTTTTTCTCG [GCTCT] | 0.376 ± 0.039 |
| TTTTTGCATGAGCATGATGATTTTTTTTTTTTTTTTCTCC [CCTCT] | 0.268 ± 0.019 |
| TTTTTGCATGAGCATGATGCTTTTTTTTTTTTTTTTCTCA [ACTCT] | 0.348 ± 0.022 |
| TTTTTGCATGAGCATGCGCATTTTTTTTTTTTTTTTCTAT [TATCT] | 0.37 ± 0.029 |
| TTTTTGCATGAGCATGCTCATTTTTTTTTTTTTTTTCTAG [GATCT] | 0.401 ± 0.031 |
| TTTTTGCATGAGCATGCTGATTTTTTTTTTTTTTTTCTAC [CATCT] | 0.296 ± 0.017 |
| TTTTTGCATGAGCATGCTGCTTTTTTTTTTTTTTTTCTAA [AATCT] | 0.454 ± 0.047 |
| TTTTTGCATGATCAGCAGCATTTTTTTTTTTTTTTTCGTT [TTGCT] | 0.417 ± 0.026 |
| TTTTTGCATGATCAGCATCATTTTTTTTTTTTTTTTCGTG [GTGCT] | 0.441 ± 0.029 |
| TTTTTGCATGATCAGCATGATTTTTTTTTTTTTTTTCGTC [CTGCT] | 0.352 ± 0.03 |
| TTTTTGCATGATCAGCATGCTTTTTTTTTTTTTTTTCGTA | 0.457 ± 0.043 |
| TTTTTGCATGATCATCAGCATTTTTTTTTTTTTTTTCGGT [TGGCT] | 0.513 ± 0.035 |
| TTTTTGCATGATCATCATCATTTTTTTTTTTTTTTTCGGG [GGGCT] | 0.558 ± 0.044 |
| TTTTTGCATGATCATCATGATTTTTTTTTTTTTTTTCGGC [CGGCT] | 0.47 ± 0.042 |
| TTTTTGCATGATCATCATGCTTTTTTTTTTTTTTTTCGGA [AGGCT] | 0.648 ± 0.024 |
| TTTTTGCATGATCATGAGCATTTTTTTTTTTTTTTTCGCT | 0.392 ± 0.085 |
| TTTTTGCATGATCATGATCATTTTTTTTTTTTTTTTCGCG [GCGCT] | 0.964 ± 0.064 |

| Sequence | background-corrected fluorescence |
| --- | --- |
| TTTTTGCATGATCATGATGATTTTTTTTTTTTTTTTCGCC [CCGCT] | 0.337 ± 0.022 |
| TTTTTGCATGATCATGATGCTTTTTTTTTTTTTTTTCGCA [ACGCT] | 0.434 ± 0.029 |
| TTTTTGCATGATCATGCGCATTTTTTTTTTTTTTTTCGAT [TAGCT] | 0.441 ± 0.022 |
| TTTTTGCATGATCATGCTCATTTTTTTTTTTTTTTTCGAG [GAGCT] | 0.478 ± 0.035 |
| TTTTTGCATGATCATGCTGATTTTTTTTTTTTTTTTCGAC [CAGCT] | 0.378 ± 0.038 |
| TTTTTGCATGATCATGCTGCTTTTTTTTTTTTTTTTCGAA [AAGCT] | 0.524 ± 0.043 |
| TTTTTGCATGATGAGCAGCATTTTTTTTTTTTTTTTCCTT | 0.351 ± 0.029 |
| TTTTTGCATGATGAGCATCATTTTTTTTTTTTTTTTCCTG [GTCCT] | 0.366 ± 0.034 |
| TTTTTGCATGATGAGCATGATTTTTTTTTTTTTTTTCCTC [CTCCT] | 0.266 ± 0.019 |
| TTTTTGCATGATGAGCATGCTTTTTTTTTTTTTTTTCCTA [ATCCT] | 0.355 ± 0.019 |
| TTTTTGCATGATGATCAGCATTTTTTTTTTTTTTTTCCGT [TGCCT] | 0.484 ± 0.027 |
| TTTTTGCATGATGATCATCATTTTTTTTTTTTTTTTCCGG [GGCCT] | 0.539 ± 0.037 |
| TTTTTGCATGATGATCATGATTTTTTTTTTTTTTTTCCGC [CGCCT] | 0.412 ± 0.025 |
| TTTTTGCATGATGATCATGCTTTTTTTTTTTTTTTTCCGA [AGCCT] | 0.552 ± 0.031 |
| TTTTTGCATGATGATGAGCATTTTTTTTTTTTTTTTCCCT | 0.317 ± 0.026 |
| TTTTTGCATGATGATGATCATTTTTTTTTTTTTTTTCCCG [GCCCT] | 0.381 ± 0.04 |
| TTTTTGCATGATGATGATGATTTTTTTTTTTTTTTTCCCC [CCCCT] | 0.243 ± 0.015 |
| TTTTTGCATGATGATGATGCTTTTTTTTTTTTTTTTCCCA [ACCCT] | 0.346 ± 0.035 |
| TTTTTGCATGATGATGCGCATTTTTTTTTTTTTTTTCCAT [TACCT] | 0.344 ± 0.024 |
| TTTTTGCATGATGATGCTCATTTTTTTTTTTTTTTTCCAG [GACCT] | 0.377 ± 0.02 |
| TTTTTGCATGATGATGCTGATTTTTTTTTTTTTTTTCCAC [CACCT] | 0.273 ± 0.016 |
| TTTTTGCATGATGATGCTGCTTTTTTTTTTTTTTTTCCAA [AACCT] | 0.388 ± 0.025 |

| Sequence | background-corrected fluorescence |
| --- | --- |
| TTTTTGCATGATGCGCAGCATTTTTTTTTTTTTTTTCATT [TTACT] | 0.359 ± 0.028 |
| TTTTTGCATGATGCGCATCATTTTTTTTTTTTTTTTCATG [GTACT] | 0.377 ± 0.019 |
| TTTTTGCATGATGCGCATGATTTTTTTTTTTTTTTTCATC [CTACT] | 0.305 ± 0.028 |
| TTTTTGCATGATGCGCATGCTTTTTTTTTTTTTTTTCATA [ATACT] | 0.396 ± 0.024 |
| TTTTTGCATGATGCTCAGCATTTTTTTTTTTTTTTTCAGT [TGACT] | 0.488 ± 0.05 |
| TTTTTGCATGATGCTCATCATTTTTTTTTTTTTTTTCAGG [GGACT] | 0.486 ± 0.034 |
| TTTTTGCATGATGCTCATGATTTTTTTTTTTTTTTTCAGC [CGACT] | 0.393 ± 0.047 |
| TTTTTGCATGATGCTCATGCTTTTTTTTTTTTTTTTCAGA [AGACT] | 0.531 ± 0.036 |
| TTTTTGCATGATGCTGAGCATTTTTTTTTTTTTTTTCACT | 0.334 ± 0.02 |
| TTTTTGCATGATGCTGATCATTTTTTTTTTTTTTTTCACG [GCACT] | 0.399 ± 0.022 |
| TTTTTGCATGATGCTGATGATTTTTTTTTTTTTTTTCACC [CCACT] | 0.265 ± 0.016 |
| TTTTTGCATGATGCTGATGCTTTTTTTTTTTTTTTTCACA [ACACT] | 0.379 ± 0.034 |
| TTTTTGCATGATGCTGCGCATTTTTTTTTTTTTTTTCAAT [TAACT] | 0.386 ± 0.019 |
| TTTTTGCATGATGCTGCTCATTTTTTTTTTTTTTTTCAAG [GAACT] | 0.39 ± 0.042 |
| TTTTTGCATGATGCTGCTGATTTTTTTTTTTTTTTTCAAC [CAACT] | 0.318 ± 0.025 |
| TTTTTGCATGATGCTGCTGCTTTTTTTTTTTTTTTTCAAA [AAACT] | 0.462 ± 0.051 |
| TTTTTGCATGCGCAGCAGCATTTTTTTTTTTTTTTTATTT | 0.381 ± 0.021 |
| TTTTTGCATGCGCAGCATCATTTTTTTTTTTTTTTTATTG [GTTAT] | 0.359 ± 0.021 |
| TTTTTGCATGCGCAGCATGATTTTTTTTTTTTTTTTATTC [CTTAT] | 0.292 ± 0.018 |
| TTTTTGCATGCGCAGCATGCTTTTTTTTTTTTTTTTATTA [ATTAT] | 0.409 ± 0.035 |
| TTTTTGCATGCGCATCAGCATTTTTTTTTTTTTTTTATGT [TGTAT] | 0.489 ± 0.046 |
| TTTTTGCATGCGCATCATCATTTTTTTTTTTTTTTTATGG [GGTAT] | 0.467 ± 0.023 |
